We go through one molecule from article PMC3902948.

One data set concerns the target Prp43-Strep (Saccharomyces cerevisiae S288c, UniProt P53131 1-767). Kind of data set: UV cross-linking.
Data set [1] has as its target Prp43-Strep;Strep-Ntr1(1-120) (Saccharomyces cerevisiae …, UniProt P53131;Q06411 1-767;1-120, |). Kind of data set: UV cross-linking.

Sequence of Prp43-Strep;Strep-Ntr1(1-120) (P53131 whole entry, chain 1 of 2): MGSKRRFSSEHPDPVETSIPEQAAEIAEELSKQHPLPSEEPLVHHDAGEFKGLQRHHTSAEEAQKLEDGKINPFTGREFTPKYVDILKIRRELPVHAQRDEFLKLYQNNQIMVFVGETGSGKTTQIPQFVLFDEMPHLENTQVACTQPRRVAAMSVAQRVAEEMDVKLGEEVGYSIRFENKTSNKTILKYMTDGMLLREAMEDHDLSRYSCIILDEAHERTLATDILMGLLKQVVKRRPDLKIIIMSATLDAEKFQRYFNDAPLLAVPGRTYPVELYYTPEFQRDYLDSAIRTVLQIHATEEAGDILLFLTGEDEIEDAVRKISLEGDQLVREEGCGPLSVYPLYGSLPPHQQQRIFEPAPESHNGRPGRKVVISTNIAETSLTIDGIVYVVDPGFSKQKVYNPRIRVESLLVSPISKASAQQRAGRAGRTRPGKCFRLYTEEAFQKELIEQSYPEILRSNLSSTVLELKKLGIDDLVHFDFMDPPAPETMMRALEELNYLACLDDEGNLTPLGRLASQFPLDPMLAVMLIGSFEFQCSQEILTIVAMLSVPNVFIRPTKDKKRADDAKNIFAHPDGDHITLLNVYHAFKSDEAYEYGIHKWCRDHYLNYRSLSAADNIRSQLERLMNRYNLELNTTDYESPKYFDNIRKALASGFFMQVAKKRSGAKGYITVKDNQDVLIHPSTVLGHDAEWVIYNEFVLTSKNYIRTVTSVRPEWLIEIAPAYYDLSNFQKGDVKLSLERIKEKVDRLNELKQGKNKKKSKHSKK
Sequence of Prp43-Strep;Strep-Ntr1(1-120) (Q06411 1-120, chain 2 of 2): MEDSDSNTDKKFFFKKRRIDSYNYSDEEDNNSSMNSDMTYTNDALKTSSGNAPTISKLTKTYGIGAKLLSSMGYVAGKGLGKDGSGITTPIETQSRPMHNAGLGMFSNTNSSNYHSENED
Sequence of Prp43-Strep (P53131 whole entry): as the sequence (P53131 whole entry, chain 1 of 2) above

Regarding GACGGGCUGUUGGUGAUGGAC (ssRNA) [21-mer ssRNA], the binding result (in the data set with Prp43-Strep; in data set [1]) was “binds” in each case.
